Results as given in publication PMC8894703, “ZNF191 alters DNA methylation and activates the PI3K‐AKT pathway in hepatoma cells via transcriptional regulation of DNMT1”.

B1: DNMT1(nt-240) EMSA probe, 30 bp (dsDNA)
DNA 1: CCTGAAAGAATGAATGAATGAATGCCTCGG
DNA 2: CCGAGGCATTCATTCATTCATTCTTTCAGG
B2: Mut-DNMT1(nt-240) EMSA probe, 30 bp (dsDNA)
DNA 1: CCTGAAAGTTTGTTTGTTTGTTTGCCTCGG
DNA 2: CCGAGGCAAACAAACAAACAAACTTTCAGG

Molecular target: ZNF191 (zinc finger protein 191) (UniProt P17028 1-368)
Assay: EMSA; LightShift Chemiluminescent EMSA kit (Pierce); buffer, salt, pH and temperature not given; unlabeled oligonucleotides used for competition, outcome not given
Conditions: protein: recombinant; label: 5' biotin; blunt

ZNF191 (zinc finger protein 191), sequence (P17028 whole entry): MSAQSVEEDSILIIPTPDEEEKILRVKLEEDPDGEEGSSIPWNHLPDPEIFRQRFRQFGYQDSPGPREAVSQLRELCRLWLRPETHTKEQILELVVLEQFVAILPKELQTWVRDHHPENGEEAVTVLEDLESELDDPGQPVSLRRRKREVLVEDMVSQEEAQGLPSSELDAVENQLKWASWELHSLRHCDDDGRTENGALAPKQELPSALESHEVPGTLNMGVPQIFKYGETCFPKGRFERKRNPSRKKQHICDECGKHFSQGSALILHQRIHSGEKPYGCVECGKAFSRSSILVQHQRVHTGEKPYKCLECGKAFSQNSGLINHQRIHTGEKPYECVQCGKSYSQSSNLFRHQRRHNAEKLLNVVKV

Binder | binding result
B1 | binds
B2 | no binding
